The array DNA melting data of Ke et al.

Assay: melting temperature; melt of duplexes
Conditions: sodium 0.0675 M; strand 1 µM

Substance | Tm [°C]
CGACGTGCGCAATGTGCTG+CAGCACATCGGGCACGTCG ((((((((.(.((((((((+)))))))).).)))))))) | 52.7
CGACGTGCAGGATGTGCTG+CAGCACATTTAGCACGTCG ((((((((...((((((((+))))))))...)))))))) | 50.3
CGACGTGCATCATGTGCTG+CAGCACATACTGCACGTCG (((((((((..((((((((+))))))))..))))))))) | 49.7
CGACGTGCACGATGTGCTG+CAGCACATAGCGCACGTCG ((((((((.(.((((((((+)))))))).).)))))))) | 50.3
CGACGTGCATCATGTGCTG+CAGCACATTTTGCACGTCG (((((((((..((((((((+))))))))..))))))))) | 50.7
CGACGTGCATAATGTGCTG+CAGCACATAACGCACGTCG ((((((((.(.((((((((+)))))))).).)))))))) | 48.8
CGACGTGCGTCATGTGCTG+CAGCACATCGCGCACGTCG (((((((((..((((((((+))))))))..))))))))) | 54.2
CGACGTGCCAAATGTGCTG+CAGCACATGCTGCACGTCG ((((((((...((((((((+))))))))...)))))))) | 48.2
CGACGTGCAGCATGTGCTG+CAGCACATTTGGCACGTCG ((((((((...((((((((+))))))))...)))))))) | 45.4
CGACGTGCGTCATGTGCTG+CAGCACATCTAGCACGTCG ((((((((...((((((((+))))))))...)))))))) | 51.5
CGACGTGCTAAATGTGCTG+CAGCACATCAGGCACGTCG ((((((((...((((((((+))))))))...)))))))) | 50.9
CGACGTGCGTCATGTGCTG+CAGCACATAACGCACGTCG ((((((((((.((((((((+)))))))).)))))))))) | 58
CGACGTGCAGGATGTGCTG+CAGCACATAACGCACGTCG ((((((((...((((((((+))))))))...)))))))) | 50.8
CGACGTGCGCAATGTGCTG+CAGCACATGCAGCACGTCG ((((((((...((((((((+))))))))...)))))))) | 57.9
CGACGTGCGTCATGTGCTG+CAGCACATGCGGCACGTCG ((((((((..(((((((((+)))))))))..)))))))) | 54.4
CGACGTGCAGGATGTGCTG+CAGCACATGCGGCACGTCG ((((((((.(.((((((((+)))))))).).)))))))) | 55.3
CGACGTGCAACATGTGCTG+CAGCACATCTGGCACGTCG ((((((((.(.((((((((+)))))))).).)))))))) | 48.9
CGACGTGCGGAATGTGCTG+CAGCACATTTTGCACGTCG ((((((((..(((((((((+)))))))))..)))))))) | 55.2

Substance | Tm [°C]
CGACGTGCTGTATGTGCTG+CAGCACATGTGGCACGTCG ((((((((...((((((((+))))))))...)))))))) | 51
CGACGTGCTCTATGTGCTG+CAGCACATATAGCACGTCG (((((((((.(((((((((+))))))))).))))))))) | 54.3
CGACGTGCCTGATGTGCTG+CAGCACATTTAGCACGTCG ((((((((...((((((((+))))))))...)))))))) | 49.6
CGACGTGCTAAATGTGCTG+CAGCACATCGAGCACGTCG (((((((((..((((((((+))))))))..))))))))) | 51.8
CGACGTGCTAAATGTGCTG+CAGCACATGTAGCACGTCG ((((((((((.((((((((+)))))))).)))))))))) | 55.7
CGACGTGCTACATGTGCTG+CAGCACATTGAGCACGTCG (((((((((..((((((((+))))))))..))))))))) | 52.8
CGACGTGCTCAATGTGCTG+CAGCACATTGTGCACGTCG ((((((((.((((((((((+)))))))))).)))))))) | 56.7
CGACGTGCGCGATGTGCTG+CAGCACATACAGCACGTCG ((((((((...((((((((+))))))))...)))))))) | 51.7
CGACGTGCGTAATGTGCTG+CAGCACATTCCGCACGTCG (((((((((.(((((((((+))))))))).))))))))) | 57.7
CGACGTGCTTGATGTGCTG+CAGCACATAAAGCACGTCG ((((((((((.((((((((+)))))))).)))))))))) | 57.7
CGACGTGCCTAATGTGCTG+CAGCACATGGGGCACGTCG (((((((((..((((((((+))))))))..))))))))) | 56
CGACGTGCCACATGTGCTG+CAGCACATTGCGCACGTCG ((((((((...((((((((+))))))))...)))))))) | 50.5
CGACGTGCTTGATGTGCTG+CAGCACATTATGCACGTCG ((((((((.(.((((((((+)))))))).).)))))))) | 51.9
CGACGTGCACAATGTGCTG+CAGCACATTGAGCACGTCG ((((((((.((((((((((+)))))))))).)))))))) | 56.9
CGACGTGCTAGATGTGCTG+CAGCACATCTTGCACGTCG ((((((((.((((((((((+)))))))))).)))))))) | 58.7
CGACGTGCGTTATGTGCTG+CAGCACATAAAGCACGTCG ((((((((.((((((((((+)))))))))).)))))))) | 56
CGACGTGCTGGATGTGCTG+CAGCACATCTGGCACGTCG ((((((((..(((((((((+)))))))))..)))))))) | 58.3
CGACGTGCCAAATGTGCTG+CAGCACATACGGCACGTCG (((((((((..((((((((+))))))))..))))))))) | 53.2
